B1: SNAPf-DOR: rat DOR with the SNAPf tag protein at its N-terminus, expressed in the PM of CHO-K1 cells (Example 2) (receptor, not shown: small tags and cut ends)
chain: SGGGSGGSGGGSGGSGGGSGGMEPVPSARAELQFSLLANVSDTFPSAFPSASANASGSPGARSASSLALAIAITALYSAVCAVGLLGNVLVMFGIVRYTKLKTATNIYIFNLALADALATSTLPFQSAKYLMETWPFGELLCKAVLSIDYYNMFTSIFTLTMMSVDRYIAVCHPVKALDFRTPAKAKLINICIWVLASGVGVPIMVMAVTQPRDGAVVCTLQFPSPSWYWDTVTKICVFLFAFVVPILIITVCYGLMLLRLRSVRLLSGSKEKDRSLRRITRMVLVVVGAFVVCWAPIHIFVIVWTLVDINRRDPLVVAALHLCIALGYANSSLNPVLYAFLDENFKRCFRQLCRAPCGGQEPGSLRRPRQATARERVTACTPSDGPGGGAAA
modifications: SNAPf tag covalently labelled with SNAP-Surface 549 or SNAP-CF660R
notes: whole, on cells; Homodimer partner is the same molecule labelled in the other colour; also called WT DOR
B2: SNAPf-MOR: rat MOR with the SNAPf tag protein at its N-terminus, expressed in the PM of CHO-K1 cells (Example 2) (receptor, not shown: small tags and cut ends)
chain: SGGGSGGSGGGSGGSGGGSGGMDSSTGPGNTSDCSDPLAQASCSPAPGSWLNLSHVDGNQSDPCGLNRTGLGGNDSLCPQTGSPSMVTAITIMALYSIVCVVGLFGNFLVMYVIVRYTKMKTATNIYIFNLALADALATSTLPFQSVNYLMGTWPFGTILCKIVISIDYYNMFTSIFTLCTMSVDRYIAVCHPVKALDFRTPRNAKIVNVCNWILSSAIGLPVMFMATTKYRQGSIDCTLTFSHPTWYWENLLKICVFIFAFIMPVLIITVCYGLMILRLKSVRMLSGSKEKDRNLRRITRMVLVVVAVFIVCWTPIHIYVIIKALITIPETTFQTVSWHFCIALGYTNSCLNPVLYAFLDENFKRCFREFCIPTSSTIEQQNSTRVRQNTREHPSTANTVDRTNHQLENLEAETAPLP
modifications: SNAPf tag covalently labelled with SNAP-Surface 549 or SNAP-CF660R
notes: whole, on cells; Homodimer partner is the same molecule labelled in the other colour; also called WT MOR
B3: κ-type opioid receptor (KOR), rat, wild type, fluorescently tagged, expressed in the PM of CHO-K1 cells (Example 1) (receptor, UniProt P34975 1-380, looked up)
chain: MESPIQIFRGEPGPTCAPSACLLPNSSSWFPNWAESDSNGSVGSEDQQLEPAHISPAIPVIITAVYSVVFVVGLVGNSLVMFVIIRYTKMKTATNIYIFNLALADALVTTTMPFQSAVYLMNSWPFGDVLCKIVISIDYYNMFTSIFTLTMMSVDRYIAVCHPVKALDFRTPLKAKIINICIWLLASSVGISAIVLGGTKVREDVDVIECSLQFPDDEYSWWDLFMKICVFVFAFVIPVLIIIVCYTLMILRLKSVRLLSGSREKDRNLRRITKLVLVVVAVFIICWTPIHIFILVEALGSTSHSTAVLSSYYFCIALGYTNSSLNPVLYAFLDENFKRCFRDFCFPIKMRMERQSTNRVRNTVQDPASMRDVGGMNKPV
notes: whole, on cells; also called WT-KOR; κ-OPR; not shown: fluorescent tag protein
B4: SNAPf-KOR: rat KOR with the SNAPf tag protein at its N-terminus, expressed in the PM of CHO-K1 cells (Example 2) (receptor, not shown: small tags and cut ends)
chain: SGGGSGGSGGGSGGSGGGSGGMESPIQIFRGEPGPTCAPSACLLPNSSSWFPNWAESDSNGSVGSEDQQLEPAHISPAIPVIITAVYSVVFVVGLVGNSLVMFVIIRYTKMKTATNIYIFNLALADALVTTTMPFQSAVYLMNSWPFGDVLCKIVISIDYYNMFTSIFTLTMMSVDRYIAVCHPVKALDFRTPLKAKIINICIWLLASSVGISAIVLGGTKVREDVDVIECSLQFPDDEYSWWDLFMKICVFVFAFVIPVLIIIVCYTLMILRLKSVRLLSGSREKDRNLRRITKLVLVVVAVFIICWTPIHIFILVEALGSTSHSTAVLSSYYFCIALGYTNSSLNPVLYAFLDENFKRCFRDFCFPIKMRMERQSTNRVRNTVQDPASMRDVGGMNKPV
modifications: SNAPf tag covalently labelled with SNAP-Surface 549 or SNAP-CF660R
notes: whole, on cells; Homodimer partner is the same molecule labelled in the other colour; also called WT KOR

Assays:
[1] = molecular target: the molecule itself; assay: colocalization durations; SNC-80 and FAM-Dpep-TAT present
[2] = molecular target: the molecule itself; assay: inverse of the homodimer lifetime; after SNC-80
[3] = molecular target: the molecule itself; assay: calculated from KD (FIG. 2-4f)
Experimental: Accordingly, by subtracting the signal intensity after the quencher addition from that before the addition, we evaluated the percentages of the OPR molecules remaining in the PM (FIG. 2-s9; FIG. 2-5a). The time courses of the OPR numbers remaining in the PM after time 0 were examined in both the presence and absence of 0.2 μM agonists and ˜3 μM FAM-Xpep-TATs in the cytoplasm (FIG. 2-5b).

[4] = molecular target: the molecule itself; assay: calculated from the equilibrium constants; after SNC-80
Experimental: (§1) The ratios of molecules that exist as dimers vs. monomers (D/M ratios) in terms of the number of protomers were calculated from KD at various expression levels (number density of molecules) (FIG. 2-4e, f). […] When they dissociate into monomers, they will again form dimers, but the rate of dimer formation depends on the number density of the monomers (and thus the expression levels).
(§2) The ratios of the numbers of protomers that exist as dimers vs. monomers at different expression levels in the PM were calculated from the three dynamic equilibrium constants and listed.

[5] = molecular target: the molecule itself; assay: inverse of the homodimer lifetime; no agonist
[6] = molecular target: the molecule itself; assay: calculated from the equilibrium constants; no agonist
Experimental: as §1, §2

[7] = molecular target: the molecule itself; assay: cell-based or functional assay
[8] = molecular target: the molecule itself; assay: inverse of the homodimer lifetime; after DAMGO
[9] = molecular target: the molecule itself; assay: calculated from the equilibrium constants; after DAMGO
Experimental: as §1, §2

[10] = molecular target: T1, µ-type opioid receptor (MOR), rat, wild type, fluorescently tagged, expressed in the PM of CHO-K1 cells … (rat, UniProt P33535 1-398); assay: dependence of the DOR-MOR colocalisation index on the concentration of the soluble peptide (competition on cells)
T1 construct: whole, on cells; also called WT-MOR; MOR-Halo; not shown: Halo tag

[11] = molecular target: T1, µ-type opioid receptor (MOR), rat, wild …; assay: colocalisation index, two-colour single-molecule imaging in CHO-K1 cells
Experimental: For simple quantification of the tendencies of OPR heterodimer formation, we employed the colocalisation index, a parameter based on the pair cross-correlation function (PCCF of the green and magenta spots), which is a measure of finding molecule B (for example, a green spot) within a 100 nm radius circle around molecule A (for example, a magenta spot) relative to farther distances of 400-500 nm (as a negative control, the video frames in the green channel were rotated 180° before overlaying; Extended Data FIG. 1-2).

[12] = molecular target: the molecule itself; assay: inverse of the homodimer lifetime; after U-50488
[13] = molecular target: the molecule itself; assay: calculated from the equilibrium constants; after U-50488
Experimental: as §1, §2

| Binder | % of copies existing as dimers at ˜1 copy/µm^2, before agonist [3] | koff [5] | D/M ratio (protomers in dimers vs monomers) at 0.3 copies/µm^2 [6] | D/M ratio (protomers in dimers vs monomers) at 1 copies/µm^2 [6] | D/M ratio (protomers in dimers vs monomers) at 3 copies/µm^2 [6] | D/M ratio (protomers in dimers vs monomers) at 10 copies/µm^2 [6] | D/M ratio (protomers in dimers vs monomers) at 30 copies/µm^2 [6] | Ca^2+ (FMax-Fb)/Fb; + Agonist + FAM-pep-TAT [7] | further results |
| --- | --- | --- | --- | --- | --- | --- | --- | --- | --- |
| B1 | 17% | 8 s⁻¹ | 0.07 | 0.21 | 0.5 | 1.17 | 2.3 | 2.84 (FMax-Fb)/Fb | fold of homodimer lifetime against wild-type DOR in the absence of the agonist [1]: ~1.5 fold; koff [2]: 3.62 s⁻¹; D/M ratio (protomers in dimers vs monomers) at 0.3 copies/µm^2 [4]: 0.15; D/M ratio (protomers in dimers vs monomers) at 1 copies/µm^2 [4]: 0.4; D/M ratio (protomers in dimers vs monomers) at 3 copies/µm^2 [4]: 0.89; D/M ratio (protomers in dimers vs monomers) at 10 copies/µm^2 [4]: 1.92; D/M ratio (protomers in dimers vs monomers) at 30 copies/µm^2 [4]: 3.62 |
| B2 | 18% | 8.47 s⁻¹ | 0.08 | 0.22 | 0.54 | 1.23 | 2.41 | 2.78 (FMax-Fb)/Fb | koff [8]: 5.35 s⁻¹; D/M ratio (protomers in dimers vs monomers) at 0.3 copies/µm^2 [9]: 0.06; D/M ratio (protomers in dimers vs monomers) at 1 copies/µm^2 [9]: 0.17; D/M ratio (protomers in dimers vs monomers) at 3 copies/µm^2 [9]: 0.43; D/M ratio (protomers in dimers vs monomers) at 10 copies/µm^2 [9]: 1.02; D/M ratio (protomers in dimers vs monomers) at 30 copies/µm^2 [9]: 2.03 |
| SDTFPSAFPSASANASGSPGARS (also called DpepDM(20-42); DpepDM) [Dpep(20-42)DM, soluble peptide with the N-terminal domain sequence aa20-42 of DOR] | – | – | – | – | – | – | – | – | Kd [10]: < 100 nM |
| B3 | – | – | – | – | – | – | – | – | binding result [11]: no binding |
| B4 | 33% | 6.71 s⁻¹ | 0.19 | 0.5 | 1.08 | 2.28 | 4.26 | 2.46 (FMax-Fb)/Fb | koff [12]: 17.9 s⁻¹; D/M ratio (protomers in dimers vs monomers) at 0.3 copies/µm^2 [13]: 0.07; D/M ratio (protomers in dimers vs monomers) at 1 copies/µm^2 [13]: 0.22; D/M ratio (protomers in dimers vs monomers) at 3 copies/µm^2 [13]: 0.52; D/M ratio (protomers in dimers vs monomers) at 10 copies/µm^2 [13]: 1.2; D/M ratio (protomers in dimers vs monomers) at 30 copies/µm^2 [13]: 2.35 |
